Test results from patent US12258430B2, “Compositions and methods for labeling and modulation of cells in vitro and in vivo” (President and Fellows of Harvard College, priority 2018, dated 2025).

How the values were obtained:
DC2.4 cells = test: Metabolic labeling of DC2.4 cells with azido-sugars, detected by DBCO agents (flow cytometry); type: cell-based; conditions: 3 days incubation, DBCO-Cy5 staining 30 min; vs control cells without pretreatment
Method: It was first tested whether tetraacetyl-N-azidoacetylmannosamine (Ac4ManAz), a commonly used metabolic labeling agent, can label DC2.4 cell line with azido groups (FIG. 2A). Ac4ManAz was synthesized following the reported procedure (Wang, H. et al. Selective in vivo metabolic cell-labeling-mediated cancer targeting. Nature Chemical Biology 13, 415-424 (2017)). […] For flow cytometry analysis of azido-labeled cells, cells were seeded in a 24-well plate at a density of 1×10^4 cells per well and allowed to attach for 12 hours. Azido-sugar was added and incubated with cells for 72 hours. […] Cells were then collected via a cell scraper, re-suspended in FACS buffer, and analyzed by flow cytometry.

[1] = Water-solubility of azido-sugar; type: physicochemical
azido-labeled BMDCs = test: In vitro capture of DBCO-OVA and DBCO-CpG by azido-labeled BMDCs; type: cell-based; conditions: BMDCs labeled with G400 NP three days, 30 min incubation; vs FITC-OVA
Method: Another objective of this invention was to utilize azido-labeled DCs, as achieved above, for LN-targeted delivery of DBCO-bearing antigens and adjuvants. It was first studied whether azido-labeled DCs could covalently capture DBCO-ovalbumin (OVA) and DBCO-CpG in vitro. BMDCs were labeled with G400 NP for three days and incubated with DBCO/FITC-OVA or FITC-OVA for 30 min. […] Similarly, BMDCs pretreated with G400 NP were able to capture more DBCO/Cy5-CpG than control BMDCs (FIGS. 5C and 5D).

[2] = tested on: azido-labeled DCs in dLNs; test: In vivo LN-targeted delivery of DBCO-OVA; design: species or system C57BL/6 mice; conditions: for A647 signal of LNs: 48 h post injection
Source text: It was next studied whether the azido-labeled DCs in dLNs can mediate targeted delivery of DBCO-OVA via Click chemistry.

Molecule: CC(=O)OC[C@H]1OC(OC(C)=O)[C@@H](NC(=O)CN=[N+]=[N-])[C@@H](OC(C)=O)[C@@H]1OC(C)=O (some centres unmarked) [Ac4ManAz, tetraacetyl-N-azidoacetylmannosamine]
- Cy5 signal of DC2.4 cells (DC2.4 cells): significantly enhanced Cy5 signal
- water-solubility [1]: poor

B1: DBCO/FITC-OVA: DBCO- and FITC-modified ovalbumin (conjugate, UniProt P01012 2-386, looked up)
Ovalbumin: GSIGAASMEFCFDVFKELKVHHANENIFYCPIAIMSALAMVYLGAKDSTRTQINKVVRFDKLPGFGDSIEAQCGTSVNVHSSLRDILNQITKPNDVYSFSLASRLYAEERYPILPEYLQCVKELYRGGLEPINFQTAADQARELINSWVESQTNGIIRNVLQPSSVDSQTAMVLVNAIVFKGLWEKAFKDEDTQAMPFRVTEQESKPVQMMYQIGLFRVASMASEKMKILELPFASGTMSMLVLLPDEVSGLEQLESIINFEKLTEWTSSNVMEERKIKVYLPRMKMEEKYNLTSVLMAMGITDVFSSSANLSGISSAESLKISQAVHAAHAEINEAGREVVGSAEAGVDAASVSEEFRADHPFLFCIKHIATNAVLFFGRCVSP
modifications: FITC, DBCO
notes: DBCO- and FITC-modified ovalbumin
- cellular uptake by azido-labeled BMDCs (azido-labeled BMDCs): improved cellular uptake

B2: A647-OVA: Alexa fluor647-conjugated OVA without DBCO (conjugate, UniProt P01012 2-386, looked up)
Ovalbumin: GSIGAASMEFCFDVFKELKVHHANENIFYCPIAIMSALAMVYLGAKDSTRTQINKVVRFDKLPGFGDSIEAQCGTSVNVHSSLRDILNQITKPNDVYSFSLASRLYAEERYPILPEYLQCVKELYRGGLEPINFQTAADQARELINSWVESQTNGIIRNVLQPSSVDSQTAMVLVNAIVFKGLWEKAFKDEDTQAMPFRVTEQESKPVQMMYQIGLFRVASMASEKMKILELPFASGTMSMLVLLPDEVSGLEQLESIINFEKLTEWTSSNVMEERKIKVYLPRMKMEEKYNLTSVLMAMGITDVFSSSANLSGISSAESLKISQAVHAAHAEINEAGREVVGSAEAGVDAASVSEEFRADHPFLFCIKHIATNAVLFFGRCVSP
modifications: Alexa Fluor 647
notes: Alexa fluor647-conjugated OVA without DBCO
- A647 signal of LNs [2]: dramatically decreased

B3: DBCO/A647-OVA: Alexa fluor647 (A647)-conjugated DBCO-OVA (conjugate, UniProt P01012 2-386, looked up)
Ovalbumin: GSIGAASMEFCFDVFKELKVHHANENIFYCPIAIMSALAMVYLGAKDSTRTQINKVVRFDKLPGFGDSIEAQCGTSVNVHSSLRDILNQITKPNDVYSFSLASRLYAEERYPILPEYLQCVKELYRGGLEPINFQTAADQARELINSWVESQTNGIIRNVLQPSSVDSQTAMVLVNAIVFKGLWEKAFKDEDTQAMPFRVTEQESKPVQMMYQIGLFRVASMASEKMKILELPFASGTMSMLVLLPDEVSGLEQLESIINFEKLTEWTSSNVMEERKIKVYLPRMKMEEKYNLTSVLMAMGITDVFSSSANLSGISSAESLKISQAVHAAHAEINEAGREVVGSAEAGVDAASVSEEFRADHPFLFCIKHIATNAVLFFGRCVSP
modifications: Alexa Fluor 647, DBCO
- percentage of A647-OVA+ DCs in dLNs ([2]; 6 h post injection): ~43%
- A647 fluorescent signal in dLNs ([2]; 6 h post injection, vs A647-OVA): significantly enhanced A647 fluorescent signal
- accumulation in dLNs ([2]; 24 h post injection, vs A647-OVA): significantly improved accumulation
- A647 signal of LNs [2]: dramatically decreased
